# In paper PMC6166933 (2018):
# B1: Recombinant GST-tagged human DDX6 (natural protein)
# chain: MSTARTENPVIMGLSSQNGQLRGPVKPTGGPGGGGTQTQQQMNQLKNTNTINNGTQQQAQSMTTTIKPGDDWKKTLKLPPKDLRIKTSDVTSTKGNEFEDYCLKRELLMGIFEMGWEKPSPIQEESIPIALSGRDILARAKNGTGKSGAYLIPLLERLDLKKDNIQAMVIVPTRELALQVSQICIQVSKHMGGAKVMATTGGTNLRDDIMRLDDTVHVVIATPGRILDLIKKGVAKVDHVQMIVLDEADKLLSQDFVQIMEDIILTLPKNRQILLYSATFPLSVQKFMNSHLQKPYEINLMEELTLKGVTQYYAYVTERQKVHCLNTLFSRLQINQSIIFCNSSQRVELLAKKISQLGYSCFYIHAKMRQEHRNRVFHDFRNGLCRNLVCTDLFTRGIDIQAVNVVINFDFPKLAETYLHRIGRSGRFGHLGLAINLITYDDRFNLKSIEEQLGTEIKPIPSNIDKSLYVAEYHSEPVEDEKP
# Columns and labels:
# [1] = target: T1, Recombinant human RO60 (human, UniProt P10155 1-538); test: BLI; rRO60 1833 nM
# [2] = target: T1, Recombinant human RO60; test: BLI; rRO60 917 nM
# T1 sequence (P10155 whole entry): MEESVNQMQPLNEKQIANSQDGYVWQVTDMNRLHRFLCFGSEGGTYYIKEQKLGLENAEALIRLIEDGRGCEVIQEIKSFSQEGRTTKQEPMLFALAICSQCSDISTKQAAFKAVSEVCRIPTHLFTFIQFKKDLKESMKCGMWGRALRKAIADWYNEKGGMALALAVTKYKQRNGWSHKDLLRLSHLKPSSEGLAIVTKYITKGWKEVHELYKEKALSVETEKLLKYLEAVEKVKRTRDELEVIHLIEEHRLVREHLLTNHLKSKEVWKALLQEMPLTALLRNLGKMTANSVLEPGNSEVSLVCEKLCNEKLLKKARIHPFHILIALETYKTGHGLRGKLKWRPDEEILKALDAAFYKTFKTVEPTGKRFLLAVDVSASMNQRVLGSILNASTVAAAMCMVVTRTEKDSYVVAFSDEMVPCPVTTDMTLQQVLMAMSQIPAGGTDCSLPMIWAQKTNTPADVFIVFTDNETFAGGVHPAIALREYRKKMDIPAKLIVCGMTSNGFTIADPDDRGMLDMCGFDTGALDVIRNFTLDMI
binder,measurement,setting,value
B1,koff,[1],0.0062 s⁻¹
same,koff,[2],0.0046 s⁻¹
